Values quoted from earlier work as cited in patent publication US20150182494A1, “METHOD OF MANAGING DIABETIC FOOT ULCERS, PRESSURE ULCERS, VENOUS LEG ULCERS AND ASSOCIATED COMPLICATION” (INDUS BIOTECH PRIVATE LIMITED, priority 2012, published 2015).

Conditions: patients treated with 3 or more tubes

## becalpermin [Regranex gel]
  Mortality secondary to malignancy, in words: increased rate of mortality secondary to malignancy
